Substitutions are numbered along the chain they refer to.
B1: 02A01-IgG-IL12 (HC) (other)
VH: EVQLQQSGPELVKPGASLKISCKASGYTFTDFTMHWVKQSHGKSLEWIGLVNPNNGGNIYNQNFKGKATLTVDTSSSTAYMELRSLTSEDSSVYYCGRVPLYTSHGMDYWGQGTSVTVSS
VL: DIVLTQSPAFLAVSLGQRATISCRASESVDSYDINSMHWYQQKPGQPPKLLIYRASHLQSGIPARFSGSGSRTDFTLTINFVEADDVATYYCQQSNEDPLTFGAGTKLELK
B2: 02A01-Fab-IL12 (LC) (other)
VH: B1 VH
VL: B1 VL
B3: 02A01-Fab-Fc-IL12 (LC) (other)
VH: B1 VH
VL: B1 VL
B4: 03A01-IgG-IL12 (HC) (other)
VH: DVQFQESGPGLVKPSQSLSLTCTVTGYSITSDFAWNWIRQFPGNELEWMGYISYSGDTNYNPSLRSRISITRDTSKNQFFLQLDSVTTEDTATYYCTIRGYYTDSAFVFWGQGTLVTVSA
VL: DIQMTQSSSYLSVSLGGRVTITCKASDHINNWLAWYQQKPGNAPRLLISGATSLETGVPSRFTGSGSGLDYTLSITSLQTEDVATYYCQQYWNSPFTFGSGTKLEIK
B5: 03A01-Fab-Fc-IL12 (LC) (other)
VH: B4 VH
VL: B4 VL
B6: 03A01-Fab-IL12 (LC) (other)
VH: B4 VH
VL: B4 VL
B7: humanized 02A01-VH2-VK3 (antibody, human IgG1, V domains shown)
VH: EVQLVQSGAEVKKPGATLKISCKASGYTFTDFTMHWVQQAPGKGLEWIGLVNPNNGGNIYNQNFKGRATLTVDTSTSTAYMELSSLRSEDTSVYYCGRVPLYTSHGMDYWGQGTLVTVSS
VL: EIVLTQSPATLSLSPGERATISCRASESVDSYDINSMHWYQQKPGQAPRLLIYRASHLQSGIPARFSGSGSRTDFTLTISSLEPEDFATYYCQQSNEDPLTFGQGTKLEIK
notes: human IgG1 format; also called 02-VH2-VK3
B8: humanized 02A01-VH6-VK2 (antibody, human IgG1, V domains shown)
VH: B7 VH with L18V, N61A, Q62E, N63K, K65Q, A68V, S92A
VL: B7 VL with L13V, L82V
notes: human IgG1 format; also called 02-VH6/VK2
B9: humanized 02A01-VH1-VK4 (antibody, human IgG1, V domains shown)
VH: B7 VH with A9P, K12V, Q38K, G44S
VL: B7 VL with L13V, R54D, H57N, L58R, Q59A, S60T, L82V
notes: human IgG1 format; also called 02-VH1-VK4
B10: humanized 02A01-VH6-VK4 (antibody, human IgG1, V domains shown)
VH: B7 VH with L18V, N61A, Q62E, N63K, K65Q, A68V, S92A
VL: B7 VL with L13V, R54D, H57N, L58R, Q59A, S60T, L82V
notes: human IgG1 format; also called 02-VH6-VK4
B11: humanized 02A01-VH2-VK4 (antibody, human IgG1, V domains shown)
VH: B7 VH
VL: B7 VL with L13V, R54D, H57N, L58R, Q59A, S60T, L82V
notes: human IgG1 format; also called 02-VH2-VK4
B12: humanized 02A01-VH4-VK1 (antibody, human IgG1, V domains shown)
VH: B7 VH with L18V, N61A, Q62E, N63K, K65Q, S92A
VL: B7 VL with L13V, A47P, L82V
notes: human IgG1 format; also called 02-VH4-VK1
B13: humanized 02A01-VH6-VK3 (antibody, human IgG1, V domains shown)
VH: B7 VH with L18V, N61A, Q62E, N63K, K65Q, A68V, S92A
VL: B7 VL
notes: human IgG1 format; also called 02-VH6/VK3
B14: humanized 02A01-VH4-VK3 (antibody, human IgG1, V domains shown)
VH: B7 VH with L18V, N61A, Q62E, N63K, K65Q, S92A
VL: B7 VL
notes: human IgG1 format; also called 02-VH4/VK3
B15: humanized 02A01-VH4-VK4 (antibody, human IgG1, V domains shown)
VH: B7 VH with L18V, N61A, Q62E, N63K, K65Q, S92A
VL: B7 VL with L13V, R54D, H57N, L58R, Q59A, S60T, L82V
notes: human IgG1 format; also called 02-VH4-VK4
B16: humanized 02A01-VH3-VK4 (antibody, human IgG1, V domains shown)
VH: B7 VH with N61A, Q62E, N63K, K65Q
VL: B7 VL with L13V, R54D, H57N, L58R, Q59A, S60T, L82V
notes: human IgG1 format; also called 02-VH3-VK4
B17: humanized 02A01-VH6-VK1 (antibody, human IgG1, V domains shown)
VH: B7 VH with L18V, N61A, Q62E, N63K, K65Q, A68V, S92A
VL: B7 VL with L13V, A47P, L82V
notes: human IgG1 format; also called 02-VH6/VK1
B18: humanized 02A01-VH4-VK2 (antibody, human IgG1, V domains shown)
VH: B7 VH with L18V, N61A, Q62E, N63K, K65Q, S92A
VL: B7 VL with L13V, L82V
notes: human IgG1 format; also called 02-VH4/VK2

What follows are binders tested against T1, human CD8 on human T cells (human, UniProt P01732 22-235) (assay: cell-based or functional assay).
T1 sequence (P01732 22-235): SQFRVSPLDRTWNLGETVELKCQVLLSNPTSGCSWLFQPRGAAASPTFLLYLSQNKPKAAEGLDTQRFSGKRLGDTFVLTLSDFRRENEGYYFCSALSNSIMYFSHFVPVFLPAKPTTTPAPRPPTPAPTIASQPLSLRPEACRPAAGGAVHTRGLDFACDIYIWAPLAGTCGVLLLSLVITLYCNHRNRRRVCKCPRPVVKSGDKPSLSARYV

Binder | EC50 of pSTAT4 signaling in human CD8+ T cells
B1 | 3.03 pM
B2 | 1.74 pM
B3 | 2.11 pM
B4 | 15.7 pM
B5 | 13.4 pM
B6 | 11.1 pM

Each binder was assayed against T1, human CD8 on human T cells (assay: flow cytometry on human CD8+ T cells, titration).
Method: (§1) The 24 humanized 02A01-derived anti-CD8 antibodies (excluding 02A01-VK3(D30E/N35Q)) were screened for their ability to bind human CD8 by evaluating binding to CD8+ T cells. The non-humanized parent (“02-Parent”) and the non-humanized parent comprising a heavy chain M39L liability mutation (“02-Parent-VH-M39L”) were used as controls. […] Cells were washed with 1×phosphate buffered saline (PBS) containing 1 mg/mL bovine serum albumin (PBS/BSA) and then stained with a 1:100 dilution of DyLight650-conjugated anti-human IgG H+L polyclonal antibody (ThermoFisher cat. no. Sa5-10129) in PBS/BSA. Following a 20-30 min incubation at 4° C., the cells were washed once with PBS/BSA, and then resuspended in PBS/BSA for analysis on a FACSCelesta using Diva software (BD Biosciences). The resulting data were analyzed using FlowJo. Data were quantified and reported as Max fluorescence intensity (MFI) of human IgG-Fc. […] Complete replacement of the HCDR1 (antibodies comprising VH5) eliminated binding to the CD8+ T cells.
(§2) Binding to human CD8+ T cells was tested at 7 serial 5-fold dilutions of each tested humanized 02A01 variant (from 50 nM to 3.2 pM). The resulting data were analyzed using FlowJo.

Binder | Fold Change to Parental Apparent KD | Maximum CD8+ T cell Binding (MFI)
B7 | 1.18 fold | 2880 MFI
B8 | 1.68 fold | 2770 MFI
B9 | 0.89 fold | 2050 MFI
B10 | 1.12 fold | 1690 MFI
B11 | 0.89 fold | 2040 MFI
B12 | 0.86 fold | 2810 MFI
B13 | 1.51 fold | 2540 MFI
B14 | 1.56 fold | 2620 MFI
B15 | 1.04 fold | 1640 MFI
B16 | 1.16 fold | 1560 MFI
B17 | 1.02 fold | 2620 MFI
B18 | 1.14 fold | 2680 MFI

Each binder was assayed against T1, human CD8 on human T cells (assay: flow cytometry on human CD8+ T cells, titration, apparent KD).
Method: as §1, §2

Binder | Kd
B7 | 0.067 nM
B8 | 0.096 nM
B9 | 0.051 nM
B10 | 0.064 nM
B11 | 0.051 nM
B12 | 0.049 nM
B13 | 0.089 nM
B14 | 0.089 nM
B15 | 0.059 nM
B16 | 0.066 nM
B17 | 0.058 nM
B18 | 0.065 nM

The binders below were run against T2, human CD8α/β (human, UniProt P01732 22-182; P10966 22-170) (assay: SPR, antibody captured on Protein A chip, hCD8α/β as analyte, 1:1 fit).
T2 construct: Soluble heterodimer used in SPR and in the Carterra binning (there printed only as CD8α/β); also called hCD8α/β
T2 sequence (P01732 22-182, chain 1 of 2): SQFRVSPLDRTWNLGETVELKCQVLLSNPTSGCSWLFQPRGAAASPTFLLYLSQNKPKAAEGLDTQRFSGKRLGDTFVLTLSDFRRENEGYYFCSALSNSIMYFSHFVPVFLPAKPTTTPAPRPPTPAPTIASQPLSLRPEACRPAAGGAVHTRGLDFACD
T2 sequence (P10966 22-170, chain 2 of 2): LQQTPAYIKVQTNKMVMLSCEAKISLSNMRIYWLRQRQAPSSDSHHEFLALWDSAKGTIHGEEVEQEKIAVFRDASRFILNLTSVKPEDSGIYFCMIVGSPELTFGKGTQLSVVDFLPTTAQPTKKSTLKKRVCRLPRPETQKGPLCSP
Method: (§3) The binding affinities of six of the humanized anti-CD8 antibodies to human CD8 were also determined by surface plasmon resonance (SPR). Briefly, equilibrium dissociation constants for human CD8α/β were determined using a real-time SPR biosensor using a Protein A Sensor Chip (Cytiva) to capture purified anti-CD8 monoclonal antibodies at a concentration of 0.5 nM. SPR binding studies were performed in a buffer composed of Phosphate buffered saline, pH 7.2 containing 0.05% v/v Surfactant P20 (PBS-P20 buffer). Different concentrations of hCD8α/β prepared in PBS-P20 running buffer (ranging from 500 nM to 7.8 nM, 2-fold dilutions) were injected over the anti-CD8 monoclonal antibody captured surface. Association of hCD8α/β to the captured monoclonal antibody was monitored for 400 seconds and the dissociation of hCD8α/β in PBS-P20 running buffer was monitored for 600 sec. All of the binding kinetics experiments were performed at 25° C. Kinetic association (kₐ) and dissociation (kd) rate constants were determined by fitting the real-time sensorgrams to a 1:1 binding model using Scrubber 2.0c curve fitting software.

Binder | Kd
B8 | 16.6 nM
B13 | 19.6 nM
B14 | 19.8 nM
B17 | 15.9 nM
B18 | 19.5 nM

These binders were tested against T2, human CD8α/β (assay: SPR, antibody captured on Protein A chip, hCD8α/β as analyte).
Method: as §3

Binder | Fold Change to Parental Calculated KD
B8 | 1.79 fold
B13 | 2.12 fold
B14 | 2.13 fold
B17 | 1.71 fold
B18 | 2.1 fold

Source: US20260055186A1 (REPERTOIRE IMMUNE MEDICINES, published 2026)
